Measured values as given in PMC3483115 (The Journal of General Physiology, 2012).

Molecular target: calmodulin (CaM), wild type (UniProt P0DP23 1-149)
Experiment: SEC

EGVKRTLSFSLRSGRVSGRNWKNFALVPLLRDAST [TRPV1-CT35 (TRPV1 C-terminal residues 767–801)]
binding result: binds
